Assay results taken from patent publication US20260007750A1.

Tests used:
Pak2 kinase = Pak2 kinase (UniProt Q13177); assay: cell-based or functional assay
[1] = molecular target: HIV-1 Nef protein (wild-type, HIV-1 Clade B)

HIV-1 Nef protein (wild-type, HIV-1 Clade B)
phosphorylation of Pak2 at S55, quantitative phosphoproteomics of CAR T cells stimulated by NALM6 cells (Nef-WT compared to NefAxxA) (log2 fold change) (Pak2 kinase): 2.15
phosphorylation of Pak2 at S152, quantitative phosphoproteomics of CAR T cells stimulated by NALM6 cells (Nef-WT compared to NefAxxA) (log2 fold change) (Pak2 kinase): 1.17

B1: Pak2 kinase (protein)
chain: SDNGELEDKPPAPPVRMSSTIFSTGGKDPLSANHSLKPLPSVPEEKKPRHKIISIFSGTEKGSKKKEKERPEISPPSDFEHTIHVGFDAVTGEFTGMPEQWARLLQTSNITKLEQKKNPQAVLDVLKFYDSNTVKQKYLSFTPPEKDGFPSGTPALNAKGTEAPAVVTEEEDDDEETAPPVIAPRPDHTKSIYTRSVIDPVPAPVGDSHVDGAAKSLDKQKKKTKMTDEEIMEKLRTIVSIGDPKKKYTRYEKIGQGASGTVFTATDVALGQEVAIKQINLQKQPKKELIINEILVMKELKNPNIVNFLDSYLVGDELFVVMEYLAGGSLTDVVTETCMDEAQIAAVCRECLQALEFLHANQVIHRDIKSDNVLLGMEGSVKLTDFGFCAQITPEQSKRSTMVGTPYWMAPEVVTRKAYGPKVDIWSLGIMAIEMVEGEPPYLNENPLRALYLIATNGTPELQNPEKLSPIFRDFLNRCLEMDVEKRGSAKELLQHPFLKLAKPLSSLTPLIMAAKEAMKSNR
Pak2 phosphorylation by gel electrophoresis / Western blot (NefWP (Nef variant)): Nef variants that promote CAR T cell activity in vivo (Nef WT, NefWP and NefD123G) but not NefAxxA expressing CARs also promoted Pak2 phosphorylation
Pak2 phosphorylation by gel electrophoresis / Western blot [1]: Nef variants that promote CAR T cell activity in vivo (Nef WT, NefWP and NefD123G) but not NefAxxA expressing CARs also promoted Pak2 phosphorylation
Pak2 phosphorylation by gel electrophoresis / Western blot (NefD123G (Nef variant)): Nef variants that promote CAR T cell activity in vivo (Nef WT, NefWP and NefD123G) but not NefAxxA expressing CARs also promoted Pak2 phosphorylation
